Experimental findings from IntAct's records for PubMed 20224574 are described below.

B1: Nibrin (Homo sapiens), O60934 (parent)
chain: MWKLLPAAGPAGGEPYRLLTGVEYVVGRKNCAILIENDQSISRNHAVLTANFSVTNLSQTDEIPVLTLKDNSKYGTFVNEEKMQNGFSRTLKSGDGITFGVFGSKFRIEYEPLVACSSCLDVSGKTALNQAILQLGGFTVNNWTEECTHLVMVSVKVTIKTICALICGRPIVKPEYFTEFLKAVESKKQPPQIESFYPPLDEPSIGSKNVDLSGRQERKQIFKGKTFIFLNAKQHKKLSSAVVFGGGEARLITEENEEEHNFFLAPGTCVVDTGITNSQTLIPDCQKKWIQSIMDMLQRQGLRPIPEAEIGLAVIFMTTKNYCDPQGHPSTGLKTTTPGPSLSQGVSVDEKLMPSAPVNTTTYVADTESEQADTWDLSERPKEIKVSKMEQKFRMLSQDAPTVKESCKTSSNNNSMVSNTLAKMRIPNYQLSPTKLPSINKSKDRASQQQQTNSIRNYFQPSTKKRERDEENQEMSSCKSARIETSCSLLEQTQPATPSLWKNKEQHLSENEPVDTNSDNNLFTDTDLKSIVKNSASKSHAAEKLRSNKKREMDDVAIEDEVLEQLFKDTKPELEIDVKVQKQEEDVNVRKRPRMDIETNDTFSDEAVPESSKISQENEIGKKRELKEDSLWSAKEISNNDKLQDDSEMLPKKLLLTEFRSLVIKNSTSRNPSGINDDYGQLKNFKKFKKVTYPGAGKLPHIIGGSDLIAHHARKNTELEEWLRQEMEVQNQHAKEESLADDLFRYNPYLKRRR

Common to all, as to settings: with mdc1_human MDC1, Q14676
Sequence of mdc1_human MDC1, Q14676 (Q14676 whole entry): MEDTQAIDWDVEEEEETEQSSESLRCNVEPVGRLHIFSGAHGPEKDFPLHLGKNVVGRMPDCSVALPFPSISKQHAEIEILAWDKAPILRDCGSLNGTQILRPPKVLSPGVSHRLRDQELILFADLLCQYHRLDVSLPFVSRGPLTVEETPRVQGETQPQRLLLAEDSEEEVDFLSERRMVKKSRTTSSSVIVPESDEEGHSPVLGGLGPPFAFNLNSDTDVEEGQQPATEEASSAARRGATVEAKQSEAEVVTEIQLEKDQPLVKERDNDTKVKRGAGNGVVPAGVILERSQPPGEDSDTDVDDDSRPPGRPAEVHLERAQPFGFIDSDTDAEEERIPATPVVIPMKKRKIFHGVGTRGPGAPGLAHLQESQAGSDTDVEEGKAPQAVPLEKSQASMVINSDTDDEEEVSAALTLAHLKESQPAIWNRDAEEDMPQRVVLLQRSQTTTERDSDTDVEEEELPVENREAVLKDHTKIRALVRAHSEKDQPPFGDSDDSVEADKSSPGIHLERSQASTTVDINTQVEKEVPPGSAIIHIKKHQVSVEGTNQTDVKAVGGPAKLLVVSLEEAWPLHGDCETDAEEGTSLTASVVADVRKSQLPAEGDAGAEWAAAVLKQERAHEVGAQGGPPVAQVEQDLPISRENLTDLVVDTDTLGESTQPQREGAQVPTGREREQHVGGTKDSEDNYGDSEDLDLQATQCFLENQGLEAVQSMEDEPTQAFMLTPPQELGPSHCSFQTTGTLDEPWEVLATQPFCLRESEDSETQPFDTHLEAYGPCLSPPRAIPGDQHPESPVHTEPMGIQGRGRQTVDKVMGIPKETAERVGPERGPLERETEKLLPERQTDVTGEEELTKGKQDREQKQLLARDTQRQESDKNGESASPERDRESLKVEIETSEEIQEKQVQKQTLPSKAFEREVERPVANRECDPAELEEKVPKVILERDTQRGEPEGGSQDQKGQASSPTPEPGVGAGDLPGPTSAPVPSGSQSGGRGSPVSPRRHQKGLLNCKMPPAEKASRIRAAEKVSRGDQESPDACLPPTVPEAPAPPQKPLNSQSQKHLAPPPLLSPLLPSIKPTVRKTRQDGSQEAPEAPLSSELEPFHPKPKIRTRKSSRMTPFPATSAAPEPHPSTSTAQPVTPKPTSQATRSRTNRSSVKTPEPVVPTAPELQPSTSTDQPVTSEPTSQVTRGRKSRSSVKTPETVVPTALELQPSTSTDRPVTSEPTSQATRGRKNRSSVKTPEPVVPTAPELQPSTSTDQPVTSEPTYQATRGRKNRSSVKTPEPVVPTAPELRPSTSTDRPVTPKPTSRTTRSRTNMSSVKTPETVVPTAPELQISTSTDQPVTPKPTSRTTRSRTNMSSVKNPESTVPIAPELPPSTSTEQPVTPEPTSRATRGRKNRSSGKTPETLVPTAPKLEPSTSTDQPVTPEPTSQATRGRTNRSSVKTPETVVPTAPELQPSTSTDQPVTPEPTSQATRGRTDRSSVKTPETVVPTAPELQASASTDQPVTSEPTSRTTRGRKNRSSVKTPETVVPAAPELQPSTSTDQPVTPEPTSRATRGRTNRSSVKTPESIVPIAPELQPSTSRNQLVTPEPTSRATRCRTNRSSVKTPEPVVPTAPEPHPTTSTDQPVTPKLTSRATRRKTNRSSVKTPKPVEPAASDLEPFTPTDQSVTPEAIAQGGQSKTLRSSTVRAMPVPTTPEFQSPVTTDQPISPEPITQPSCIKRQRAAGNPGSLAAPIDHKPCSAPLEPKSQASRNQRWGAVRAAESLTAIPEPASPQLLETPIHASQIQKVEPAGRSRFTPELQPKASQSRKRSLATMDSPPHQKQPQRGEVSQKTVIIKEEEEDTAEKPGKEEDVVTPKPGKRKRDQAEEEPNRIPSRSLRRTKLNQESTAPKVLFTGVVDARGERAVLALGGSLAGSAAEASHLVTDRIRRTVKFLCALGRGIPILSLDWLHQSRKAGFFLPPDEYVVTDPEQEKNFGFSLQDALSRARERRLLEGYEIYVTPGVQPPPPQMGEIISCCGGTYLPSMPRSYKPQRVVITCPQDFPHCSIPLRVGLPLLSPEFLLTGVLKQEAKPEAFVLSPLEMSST
Variants of B1 are the subject of assay [1].
The variants in assay [2] derive from B1. This is another data set of the same source.
The variants in assay [3] derive from B1. This is another data set of the same source.

As to R28A, the “effect of a mutation on the interaction” value is listed as “decreasing interaction” with mdc1_human MDC1, Q14676 [1] and “disrupting interaction” with mdc1_human MDC1, Q14676 [2].

K160M: the “effect of a mutation on the interaction” value with mdc1_human MDC1, Q14676 [3] is listed as “decreasing interaction”; with mdc1_human MDC1, Q14676 [2] it was “disrupting interaction”.
